Reference: the supplement of paper PMC10567573

B1: CLCN6 (parent)
chain: ILRSQLVTLLVRGVCYSESQSSAS
B2: VPS39 (parent)
chain: ITEEKVCMVCKKKIGNSAFARYPN

Variants of: B1
Test: protein stability index of a GFP-peptide fusion (GPS, HEK-293T) (PSI 1-6); higher = more stable
Settings: c terminus: a fixed tail appended
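Also: lentivirally expressed fusions sorted by FACS into six bins by GFP to DsRed ratio, PSI derived from sequencing read proportions per bin multiplied by bin number.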

Protein stability index, by site and new letter:
G13: I 2.7, L 2.53, N 3.53, P 2.69, Q 3.06, R 3.25, S 2.89, V 3.06, W 1.7
V14: E 1.47, F 2.46, G 2.1, H 2.01, I 2.79, K 2.87, M 1.59, N 1.57, Q 3.26, R 2.67, S 2.76, T 3.29, W 2.82
C15: A 3.2, D 1.89, F 4.46, G 3.11, H 1.73, I 3.23, K 1.13, N 1.57, P 2.23, R 3.44, V 5.04, Y 4.15
Y16: A 3.1, C 2.31, D 2.09, E 1.94, H 2.77, I 2.94, K 1.32, L 3.45, N 2.37, P 3.6, R 3.34, S 2.22, T 3.87, V 2.94, W 2.61
S17: A 2.45, D 2.43, E 2.11, F 2.25, G 2.54, H 3, I 3.39, K 2.16, L 4.34, N 3.71, P 2.5, Q 1.98, R 2.36, T 2.24, Y 2.78
E18: A 2.15, D 2.19, F 5.28, G 3.04, H 2.13, I 3.81, K 5.27, L 2.71, M 2.09, N 3.67, P 3.08, Q 2.09, R 2.1, T 4.5, W 2.86, Y 2.54
S19: A 4.08, C 3.23, D 2.21, F 3.38, G 1.57, H 3.62, L 3.29, M 3.15, P 1.82, Q 1.79, T 4.83, W 2.92, Y 2.44
Q20: A 4.07, C 4.15, D 1.56, E 3.06, F 2.4, G 3.74, H 2.27, I 1.93, K 4.02, L 2.77, T 1.8, V 2.68, W 2.38, Y 3.72
S21: A 3.29, E 4.5, F 2.54, I 2.59, K 2.66, L 2.14, M 2.12, N 2.81, P 1.34, W 3.14, Y 2.89
S22: A 1.76, D 1.44, F 4.37, H 3.54, I 2.29, K 3.18, M 3.01, N 1.92, P 2.17, Q 3.86, R 3.39, T 2.11, V 2.66, Y 3.28
A23: C 2.96, D 4.03, E 2.41, F 3.27, H 2.38, I 4.16, K 2.29, M 2.75, N 4.11, P 3.09, Q 3.96, S 2.38, T 2, V 1.81, W 4.14, Y 3
S24: D 2.68, F 3.24, G 3.21, K 2.49, M 4.04, N 2.4, P 3.9, Q 1.85, R 2.78, T 2.7, V 2.87, W 2.9

Variants of: B2
Test: as above
Settings: c terminus: a fixed tail appended

Protein stability index, by site and new letter:
I1: A 2.97, C 2.24, D 3.39, E 3.18, F 2.67, G 3.1, H 2.59, K 2.6, L 2.5, M 2.2, N 2.78, P 2.35, Q 2.91, R 2.13, S 2.59, T 2.88, V 2.95, W 2.33, Y 2.49
T2: A 2.94, C 2.32, D 2.92, E 2.72, F 2.9, G 2.15, H 3.16, I 2.43, K 2.42, L 3.59, M 2.02, N 2.79, P 2.53, Q 3.19, R 2.55, S 2.27, V 2.67, W 1.77, Y 2.34
E3: A 1.97, C 1.26, D 2.55, F 1.51, G 2.13, H 1.94, I 3, K 1.44, L 1.91, M 1.39, N 1.84, P 2.25, Q 2.53, R 3.83, S 1.97, T 1.97, V 1.82, W 1.96, Y 2.03
E4: A 1.47, C 1.57, D 2.94, F 1.77, G 1.5, H 1.82, I 2.06, K 1.86, L 2.09, M 2.57, N 2.12, P 2.39, Q 2.38, R 2.15, S 1.74, T 1.83, V 1.91, Y 2.15
K5: A 2.63, C 2.04, D 2.65, E 2.62, F 2.21, G 2.33, H 2.17, I 1.78, L 2.06, M 2.23, N 3.66, P 2.87, Q 2.42, R 1.65, S 2.53, T 2.09, V 1.98, W 2.28, Y 1.55
V6: A 1.83, C 1.95, D 3.48, E 2.8, F 2.39, G 1.38, H 2.65, I 3.18, K 2.95, L 2.21, M 2.81, N 3.42, P 2.88, Q 2.48, R 2.44, S 3.06, T 2.3, W 1.62, Y 2.52
C7: A 2.81, D 4.19, E 4.24, F 2.78, G 2.46, H 3.47, I 2.2, K 3.1, L 2.77, M 2.79, N 4.1, P 3.64, Q 3.31, R 2.54, S 2.98, T 3.18, V 3.31, W 2.02, Y 2.53
M8: A 2.91, C 2.44, D 2.95, E 2.85, F 3.02, G 2.64, H 2.31, I 2.6, K 3.11, L 2.65, N 2.92, P 2.64, Q 3.22, R 2.39, S 3.29, T 2.43, V 3.23, W 1.51, Y 1.94
V9: A 3.05, C 2.67, D 2.71, E 3.53, F 2.27, G 3.1, H 2.87, I 2.06, K 3.58, L 2.83, M 2.69, N 3.33, P 3.59, Q 3.4, R 3.61, S 3.35, T 2.51, W 2.34, Y 1.99
C10: A 3.13, D 3.67, E 4.15, F 2.04
